The text below walks through data of the domain aggregation screens of Martell et al. (2025).

This data set in a line: soluble fraction after stress (log2 fold change); higher = more stays soluble; pooled small domains, quantitative proteomics. The settings on record: stress: 75 degC.
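Also: 20 min heating vs room temperature control held 20 min.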

Turning to “HMVSYTLPTLHTGKNWYVDFTAYDPAEQKMKRKKYMLDGISKITERRKRAVDIIATVTARLRSGWNPWA”, the “soluble fraction (log2)” value is -2.76.

“HMVTARMPDLFGLDEATAQRMVSNAGLTLKTEYAYSDQAEGYVFDQTPEANAEVRRGGTVTAMIS”: the “soluble fraction (log2)” value was found to be 0.069.

With “HMVTEIDYGAFIKMTEEGNIGEVKIEDNQIVFTDKENKAIYKTGIMPDSDLTQRLYDSGAVFA”, the “soluble fraction (log2)” value was found to be 0.128.

Regarding “HMVTEKPLYRDELMDHDTVWVEPISMDSHLRMELRGWYHVKNRFVENEVGQRFYFDFYDIKWLAFTNGP”, the “soluble fraction (log2)” value was -5.45.

With “HMVTINTASLEKAIADAKAVVKESYTTDSYNAMKAVLDEAEDLLKEEAQDQDTIDAKTEALNAAIEALVKR”, the “soluble fraction (log2)” value was 0.166.

As to “HMVTLPLLKRGHTGLPVKALQTLLVLRGMSVDVDGSFGEKTESAVRTFQTAAKILSDGEVGKDTWKALI”, the “soluble fraction (log2)” value was -1.56.

“HMVTPPMVVVDVQGEVKTPGVYHLPTNSRVNDAIKAAGGPKQSADLSYINQARMVKDGEQIYVEKKL”: the “soluble fraction (log2)” value came out at 0.0962.

As to “HMVTTDPIADMLTRIRNASSQKHKSVDVPASKEKLAIAQILFEEGYIKSFEEIKEENNQGVIRITLKYTEK”, the “soluble fraction (log2)” value was -0.733.

Turning to “HMVTVPNYSDPRQYVEWGNANGITINRAVGDTIASMSGRVQDVRDSNGNSVIGKKVKKGSTVTVYIYFLK”, the “soluble fraction (log2)” value was -1.08.

Turning to “HMVTVSAVNITPKGHTTVGFTDRSVNPPSNYYLRVGESADGWTVKDADFDDEIATLEKDGVAITLKL”, the “soluble fraction (log2)” value was -0.228.

Regarding “HMVTYELTEDEKFIVSLLEKENSQPIGALKDKSALSGKKWDAAMKGLAKHGLTKVVVDGDNKLVVL”, the “soluble fraction (log2)” value was -0.0322.

As to “HMVVEDDTVLQAVKQAIEENPEAVSDYFEGKSKALNFLVGQVMRITRGKADPAKTNQMVVEELKNR”, the “soluble fraction (log2)” value was 0.237.

Turning to “HMVVMKGKVKWFNKNKGYGFIITDDNKEYFVHWKSIVTNSPRELKVLEQDELVTFDLMETDKGIQAINII”, the “soluble fraction (log2)” value was -2.19.

Consider “HMVVPELNLAQQDVLRALRQRGRATADHLSVDTHRPVSEVMGILLGLEIAEVLYRVEGGWFVPKTAR”, for which the “soluble fraction (log2)” value was -2.39.

With “HMVVSDKIAFSSFLKSVEDGRVVEVEITGNDIRGILSDGTVFNTYAPNDPNLVEKLTSKGVNITALPKE”, the “soluble fraction (log2)” value turned out to be 0.522.

Regarding “HMVVYQRVHDEILQALKDNVYPVGTLLPPEPELERIYSVSRTTVRRAIAKLSEEGYVQVRQGYGTMVLKN”, the “soluble fraction (log2)” value is -3.48.

For “HMWGAYHDGQVVKFPKKVTVYVIDGQYKRPLANEFVLKFLNYKTSDIIIDKDGNLNNYKNGAVVEH”, the “soluble fraction (log2)” value is -2.79.

For the sequence “HMWMQKILGNYIAARRKELGMTQANLAEKIHVTDKAVSRWERGVGLPDIENLEALAKALEVSLVSLMQGKT”, the “soluble fraction (log2)” value is -2.36.

In the case of “HMWNGIVDAGKARQHLMNLSQLGVGRRAVAAASDVAETVLMDIRSGTKTRIRARTERQILAVTPEMA”, the “soluble fraction (log2)” value is -2.42.

Take “HMWNTADDIKEAIWKLIQSEDPKKPYSDLKISQLLLEKEMKISRRTVAKYRKEMGILGTYSRK”: the “soluble fraction (log2)” value was -0.603.

In the case of “HMWQPIKLDRGDWQNSLQVGDRVFVRGIPRPVEILSAVDEENNIEVLMGTMRAKIPVYQLDKPAENFIDTT”, the “soluble fraction (log2)” value is -0.362.

For the sequence “HMWQVVEVDYGTFMSMTEDGQVGRVEIQEQENLILFTDQEETTVYKTAMVDDPDLTARLHDAGIPFYGQE”, the “soluble fraction (log2)” value is -1.06.

On to “HMWSGEPFLDELRHADTLLETDPEAALAEYRALADKGSAAAMMALGNAYASGSHVARDEGEAEHWYRRAA”, for which the “soluble fraction (log2)” value came out at 0.0377.

In the case of “HMWSLLVILQLREGGQRFSQLQRAIPDISQRMLTQTLRKLERDGLVSRKVTPSTPPRVDYAITELGH”, the “soluble fraction (log2)” value is -0.841.

For the sequence “HMWSQEPEYRPLYNSMDGFDAGQVVEMLQQSRIDYKVEPNSGALLVRSEDLADARLRLASAGISP”, the “soluble fraction (log2)” value came out at 0.0488.

In the case of “HMYAEVTITIEKGMTSDSVSKLLYKAGIVDDAKEFNNYIIKAGKSTKILIGEFTIQKGASYDDIIKIIA”, the “soluble fraction (log2)” value is -3.51.

On to “HMYAGTVTQVKNNKVMLEFDGETVNVGDQFFILNSDGKKVAIVEITAAKNKKALANVLKGKAVVDGTTQAK”, for which the “soluble fraction (log2)” value is -0.476.

As to “HMYAVDTIHKGTITEMTDKGAVVSLGDNIDGFAPARQLVKEDGTTLKLGDTADFKVIEFSKATKRITLSH”, the “soluble fraction (log2)” value was 0.58.

As for “HMYAVQKGDTLKKIADQFGISVDTIKWANDMKGDALSIDQELKIP”, the “soluble fraction (log2)” value came out at 0.414.

Regarding “HMYDAEAINKFFDIENWDFGETFYFQELSAYIMNQLSPKLVTILIVPRQTTQAFGSLFEIKSEPDEIFAS”, the “soluble fraction (log2)” value was 0.172.

For the sequence “HMYDDEELDVLAHRPIESYTDAELAMLREVAETLLETDYEGWLKSLSMRGILLPPEILQLVT”, the “soluble fraction (log2)” value is -0.269.

For the sequence “HMYDDLEPFDANGRLRWSDKELILAFGRHRGVTLQTLELNDPGYLRWLLSGNGPLEQQDRKRLEDILES”, the “soluble fraction (log2)” value is -1.45.

With “HMYDEKTLRKAVLDYVRDNDDGRLDLMKIDSYLTSRYGNIDYAALGYNRLSMFISSFPELRRNSNYVTLRK”, the “soluble fraction (log2)” value was -1.44.

For “HMYEDNERNLYSVVINFLNEHKIKISREAINLVINRSSGDKHNLKQELNKILNYSFSNKNITYETIEKLSN”, the “soluble fraction (log2)” value was -1.83.

Take “HMYEDNERSLVPIVQNFLKEKKILLSNQSINLIVQRSGGDRINLYNELQKIESFSKNQKKIDIGDIIKLTN”: the “soluble fraction (log2)” value was -1.03.

As to “HMYEDSNQSLNFFAIKFIKEKNIKISQETTNLIVERARGDRGNLINELQKLEALSLTRKKITQEDVFNLTN”, the “soluble fraction (log2)” value was -1.99.

As to “HMYEGLILINKYDSLVSAKLETNKIKSLGLFFEDMEEKIAVFSGPFKNNDINLKLDFLIRNGYLDAKIY”, the “soluble fraction (log2)” value is -4.87.

As for “HMYEIEDIKEKLLDLLANSKTGFSGLEISNRLGINRITVSKYLNIFSAEGLIKQKNIGNVIIWFVEDGIE”, the “soluble fraction (log2)” value is -0.509.

In the case of “HMYEVDGLGIRIAQLRKKQDLTQEAFARTLGVSPQAVSKWETGIGYPDITLLPQIAKELGVSIDQLFGRN”, the “soluble fraction (log2)” value is -0.307.

In the case of “HMYFGDADGNKKVDAADALYLKRHLADWEDYRELPQKTNVSWMDEASPANLMILERHIAGWKDYEMLPYT”, the “soluble fraction (log2)” value is -0.425.

“HMYFMDEETWESKKTLLNDWYEANPEYADRRAISDGLFKIGDLQPDFRRRHWGSIGVIFADIPNSPMG”: the “soluble fraction (log2)” value is -0.502.

Take “HMYGHKLDSYESYVVSELRRWPFLSAPQIHDRLKEHFSDLPLVTPKTVFNFVNRLRLTHSLPKE”: the “soluble fraction (log2)” value is -3.38.

As to “HMYGLSFLIGFTVVDRTYGDIGKVTAIDDSTVNTLMAVGDRLIPAQEAFITKIDNTKKIIYTQLPEGLL”, the “soluble fraction (log2)” value was -1.17.

For “HMYGTQTVNRGAVQPGMLVKHKDSTWTASANARGRLYLHRGVEMTYTRDLLVEVYLNGLGNGL”, the “soluble fraction (log2)” value turned out to be 0.158.

For “HMYHADLIGLRVETAAGEKLGTVKAVHNFGAGDVIEITGAEDKDGLMVPFTAEVVPEVDIENGRIVVS”, the “soluble fraction (log2)” value was -0.0762.

Consider “HMYHKKEKAQAANIEERIMILLSDGKHHHITEIKAIYVDEVITLNILEEMLAEEKVIIEGDMIMLVE”, for which the “soluble fraction (log2)” value was -3.64.

In the case of “HMYKLTTQRRAILDVIIENHDKHLNPEEIYDIVKEKYPEIGIATVYRTLQLLEKLNIIYRLNFDDGYNRYE”, the “soluble fraction (log2)” value is -2.87.

Regarding “HMYKLTYVVDGEVYLEETVSYGSKIAAAPAPEKEGYTFSGWEGLPEVMPAKDVTVSGSFTVN”, the “soluble fraction (log2)” value is -0.69.

With “HMYKMKDRIKKIMEMQRTTQQDFADQLKIAPATLSSIFTGRTRPTLAIVDAIKSRFPQISTDWLMFGKGDM”, the “soluble fraction (log2)” value is -0.151.

“HMYKNAFITYDNNLYYLGSDSKMAIGWQSIGGNTYYFRNWGGMITGKQVIDGKTYVFDEDGKLVQSPD”: the “soluble fraction (log2)” value was -1.25.

Turning to “HMYLNYQTIGKRIRLLRKQQHLTQMTLAEMVDKSPTYISLVENGQKGPSLETLIDVANALKVTMDVLLAEY”, the “soluble fraction (log2)” value was -4.94.

Take “HMYLPPYMEVRAVMILDGKPMALMYIEGEGDGLIVSPGYKFDNGKGKVVSITPTKVVVLWAGTKMELG”: the “soluble fraction (log2)” value is -3.37.

For “HMYLYHDLSDEAKAMGDEYVSVEHLVLALIRYPNNAVKELFREFGITRERFLQVLSTIRGNQRVTSDNPEA”, the “soluble fraction (log2)” value came out at 0.0272.

Consider “HMYMFSGQRLKSLRKEKKMSQEKLGSLLNISKVAVSNWENAKSFPTMDNLNELAKVLEVEPHYF”, for which the “soluble fraction (log2)” value is -1.33.

“HMYMKLSVKDAALFLSVSPETVYRWVKQEEIPYHTVNDQLRFNRAELLEWATARSLEVSPDLFVP”: the “soluble fraction (log2)” value is -3.84.

With “HMYMWQVEDLIRANGLDIERIKDSIIRPYELDEERKRELTQWYEDLIDMMRREGVAQSGHLQIN”, the “soluble fraction (log2)” value is -3.28.

Consider “HMYNMEELAGHTEKVYNSLPEELKLVIKLREIENMSYDEISLKTGMPIGTVRSRLHRAREILVDSLKDY”, for which the “soluble fraction (log2)” value was -1.28.

On to “HMYQNRLFYTLKTGETVADLSKSQDINLSTIWSLNKHLYSSESEMMKAAPGQQIILPLKKLP”, for which the “soluble fraction (log2)” value was -0.247.

Take “HMYQPLRDVIFETLRKAIVSGDIKPGERLMEVSLANQMGVSRTPVREAIRRLEAEGLVTMTPRKGTHVAE”: the “soluble fraction (log2)” value is -0.891.

“HMYQRLPFSFANRYKMVLESQHPERAPILYYVEPLKSAAIIEVSRVVKNGFTPQAITLDEFDKKLTDAYQR”: the “soluble fraction (log2)” value is -1.43.

Turning to “HMYRLSPSWRIVERDDGFEIYGGDDARFQLDPSPLVSRLAAGDAVTRDGLDPTGAIEFEQLLSAGMIRPEI”, the “soluble fraction (log2)” value was -0.263.

Regarding “HMYRYTTFKVKEADTLLPFIQKSLNGISHNRAKAILTGGGVLVDKKITRAYDFALRPGMTVEISKSKP”, the “soluble fraction (log2)” value is -1.72.

Consider “HMYRYYSTLRPITPGAYPKPADNPAMLIHNFDNREYVGKIGREAWGYVEYNNPLTKEQIEAFDFVAE”, for which the “soluble fraction (log2)” value was found to be 0.0626.

“HMYSDIERAMTNAPEQFANKQAVLDFLNKNRIKKSEVDDYRIASLLKLYDDASPISKTEIISQVRT”: the “soluble fraction (log2)” value amounted to 0.396.

Consider “HMYSDQRMEIFLEHLPDFIEQLSHKHVTRQMVWEDYRMIYPDGYGKSQFFFHLAQNLKAQKP”, for which the “soluble fraction (log2)” value is -3.21.

For the sequence “HMYSYSFTSSEGSTFEGQLIRVEESQVTILRYADQKEFSIPKSRFIEADQVYFERWAIENPQL”, the “soluble fraction (log2)” value is -4.18.

As for “HMYSYSGSVSNTHDVPVSVVLKDAEGVAIASWDLQAKQSLNISAKDIATSSGTIEITGDGVSETKTVTFTK”, the “soluble fraction (log2)” value stood at 1.03.

Consider “HMYTVKELSRLTGLTPRTLRYYDAIGLLSPARNRDNDYRLYGGAEVDRLQEILLYREMGLPLEEIGRILD”, for which the “soluble fraction (log2)” value was -1.51.

“HMYTVQPHESLWSIAASQLGDGHRFTEIVDLNQELLGGKANFIKPGWVLQIP”: the “soluble fraction (log2)” value was -0.362.

For “HMYTVVVGDSPSLIADKTGVPLKELTAMNPNLSDNFLPGKQLL”, the “soluble fraction (log2)” value is -0.0135.
